B1: ANKRD44 (parent)
chain: FHCIETLVTTGANVNETDDWGRTA
B2: FLOT1 (parent)
chain: QMAKKAEAFQLYQEAAQLDMLLEK

Variants of: B1
Test: protein stability index of a GFP-peptide fusion (GPS, HEK-293T) (PSI 1-6); higher = more stable
Settings: c terminus: a fixed tail appended
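Also: lentivirally expressed fusions sorted by FACS into six bins by GFP to DsRed ratio, PSI derived from sequencing read proportions per bin multiplied by bin number.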

Protein stability index of substitutions, site by site:
E5: G 2.11; I 2.98; L 4.06; N 2.03; D 2.23; C 2.02; A 2.31; P 2.43; T 1.82; Y 3.36; Q 1.48; H 2.76; W 2.26; R 1.55; S 1.92; K 2.14
V8: A 2.05; E 3.35; K 2.42; G 1.89; H 2.45; D 3.76; P 3.48; S 3.12; N 2.86; Y 2.27; I 1.8; Q 3; T 2.29; R 2.15; L 1.4; F 2.26; M 2.2; C 2.03
T6: V 3.28; G 1.73; P 2.08; D 3.61; L 3.01; W 3.88; E 2.69; M 2.18; R 1.96; N 2.52; F 2.03; K 1.93; Q 2.16; A 2.16; Y 3.59; H 2.52; C 1.75; S 2.71
I4: M 2.16; A 2.1; T 2.87; Q 2; V 2.44; W 3.86; G 2.66; S 2.69; R 2.61; D 3.41; L 2.65; P 2.19; K 2.11; C 2.33; F 2.36; H 2.15; E 3.59; Y 1.9; N 2.87
L7: H 2.56; Y 3.58; T 2.85; N 3.08; D 4.03; V 2.19; C 2.01; P 3.04; I 2.23; G 2.42; S 2.57; A 2.2; M 2.19; R 2.66; K 2.89; F 2.86; Q 2.49; E 3.82
C3: V 2.62; I 1.78; L 2.05; N 2.21; Q 3.03; Y 2.19; R 2.47; A 1.79; P 3.36; S 2.69; F 2; D 3.62; H 2.79; E 3.96; T 2.65; G 2.89; M 2.31; W 2.47; K 3.8
F1: L 3.31; H 4.18; N 4.5; K 4.18; M 4.54; W 3.18; Q 4.54; R 3.48; D 4.81; I 3.13; E 4.77; G 4.25; C 2.18; A 4.69; V 3.68; S 4.04; T 4.25; Y 2.07; P 4.56
H2: E 3.9; V 1.74; W 1.68; F 1.8; M 2.64; G 3.71; A 2.89; D 4.54; T 3.08; L 2.31; K 3.34; N 3.37; S 3.36; I 1.62; C 2.05; Q 3.27; P 3.77; Y 1.89; R 3.46

Variants of: B2
Test: as above
Settings: c terminus: a fixed tail appended

Protein stability index of substitutions, site by site:
E23: Y 1.81; W 1.98
K24: E 4.03; L 2.08; D 3.76; Q 2.55; C 2.28; A 2.53; N 2.83; Y 2.35; R 2.13; W 2.57; P 3.37; I 3.41; F 2.2; V 1.73; T 3.03; G 2.89; S 3.36; M 2.23; H 2.67

Source: the supplement of paper PMC10567573
